Measured values reported in PMC4207087 (Current biology : CB, 2014).
Like-named read-outs stand apart in the source and are kept apart here. One block for each binder: values may come before it.

Tests used:
[1] = target: the molecule itself; test: negative stain electron microscopy
[2] = target: microtubules (MTs), individual (UniProt P68363); test: single-molecule TIRF microscopy
[3] = target: microtubules (MTs), individual (UniProt P68363); test: single-molecule TIRF microscopy; remark: listed apart in the source
[4] = target: the molecule itself; test: single-molecule photobleaching steps
[5] = target: microtubules (MTs), individual (UniProt P68363); test: single-molecule TIRF microscopy; remark: listed apart in the source
SEC = target: the molecule itself; test: SEC

Chain of microtubules (MTs), individual (P68363 whole entry, chain 1 of 2): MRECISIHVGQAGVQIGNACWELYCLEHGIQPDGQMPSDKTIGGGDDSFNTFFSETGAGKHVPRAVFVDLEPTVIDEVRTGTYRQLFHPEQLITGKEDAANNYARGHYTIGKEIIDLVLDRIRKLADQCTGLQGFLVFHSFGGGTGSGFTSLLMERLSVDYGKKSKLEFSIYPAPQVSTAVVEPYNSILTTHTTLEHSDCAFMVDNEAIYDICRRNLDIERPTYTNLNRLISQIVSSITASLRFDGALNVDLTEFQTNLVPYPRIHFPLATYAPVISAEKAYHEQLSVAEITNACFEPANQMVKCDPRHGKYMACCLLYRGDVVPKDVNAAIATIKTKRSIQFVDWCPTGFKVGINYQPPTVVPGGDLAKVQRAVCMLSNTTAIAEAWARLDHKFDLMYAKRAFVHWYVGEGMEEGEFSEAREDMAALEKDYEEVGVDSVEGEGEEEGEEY
Chain of microtubules (MTs), individual (P07437 whole entry, chain 2 of 2, further chain): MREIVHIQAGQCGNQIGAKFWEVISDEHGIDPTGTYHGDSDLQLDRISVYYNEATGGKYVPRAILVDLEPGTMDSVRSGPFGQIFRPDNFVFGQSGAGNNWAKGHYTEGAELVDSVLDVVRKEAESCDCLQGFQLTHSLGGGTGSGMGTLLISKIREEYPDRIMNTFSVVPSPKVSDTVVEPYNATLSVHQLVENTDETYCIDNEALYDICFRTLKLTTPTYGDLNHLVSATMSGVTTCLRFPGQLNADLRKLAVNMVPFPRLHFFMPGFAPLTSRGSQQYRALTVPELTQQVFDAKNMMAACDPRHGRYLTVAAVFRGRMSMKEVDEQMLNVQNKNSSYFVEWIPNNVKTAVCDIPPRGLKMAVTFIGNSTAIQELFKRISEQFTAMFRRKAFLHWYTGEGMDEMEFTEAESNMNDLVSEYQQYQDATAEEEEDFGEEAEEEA

B1: GFP-HSET (kinesin-14 HSET) (natural protein, UniProt Q9BW19 1-673, looked up)
chain: MDPQRSPLLEVKGNIELKRPLIKAPSQLPLSGSRLKRRPDQMEDGLEPEKKRTRGLGATTKITTSHPRVPSLTTVPQTQGQTTAQKVSKKTGPRCSTAIATGLKNQKPVPAVPVQKSGTSGVPPMAGGKKPSKRPAWDLKGQLCDLNAELKRCRERTQTLDQENQQLQDQLRDAQQQVKALGTERTTLEGHLAKVQAQAEQGQQELKNLRACVLELEERLSTQEGLVQELQKKQVELQEERRGLMSQLEEKERRLQTSEAALSSSQAEVASLRQETVAQAALLTEREERLHGLEMERRRLHNQLQELKGNIRVFCRVRPVLPGEPTPPPGLLLFPSGPGGPSDPPTRLSLSRSDERRGTLSGAPAPPTRHDFSFDRVFPPGSGQDEVFEEIAMLVQSALDGYPVCIFAYGQTGSGKTFTMEGGPGGDPQLEGLIPRALRHLFSVAQELSGQGWTYSFVASYVEIYNETVRDLLATGTRKGQGGECEIRRAGPGSEELTVTNARYVPVSCEKEVDALLHLARQNRAVARTAQNERSSRSHSVFQLQISGEHSSRGLQCGAPLSLVDLAGSERLDPGLALGPGERERLRETQAINSSLSTLGLVIMALSNKESHVPYRNSKLTYLLQNSLGGSAKMLMFVNISPLEENVSESLNSLRFASKVNQCVIGTAQANRK
stoichiometry N [1]: 2

dwell time [2]: 1.9 s
dwell time [3]: 12.2 s
dwell time [5]: 4 s
B2: GFP-Kif15-FL (full-length Kif15, Kinesin-12) (natural protein, UniProt Q9NS87 1-1388, looked up)
chain: MAPGCKTELRSVTNGQSNQPSNEGDAIKVFVRIRPPAERSGSADGEQNLCLSVLSSTSLRLHSNPEPKTFTFDHVADVDTTQESVFATVAKSIVESCMSGYNGTIFAYGQTGSGKTFTMMGPSESDNFSHNLRGVIPRSFEYLFSLIDREKEKAGAGKSFLCKCSFIEIYNEQIYDLLDSASAGLYLREHIKKGVFVVGAVEQVVTSAAEAYQVLSGGWRNRRVASTSMNRESSRSHAVFTITIESMEKSNEIVNIRTSLLNLVDLAGSERQKDTHAEGMRLKEAGNINRSLSCLGQVITALVDVGNGKQRHVCYRDSKLTFLLRDSLGGNAKTAIIANVHPGSRCFGETLSTLNFAQRAKLIKNKAVVNEDTQGNVSQLQAEVKRLKEQLAELASGQTPPESFLTRDKKKTNYMEYFQEAMLFFKKSEQEKKSLIEKVTQLEDLTLKKEKFIQSNKMIVKFREDQIIRLEKLHKESRGGFLPEEQDRLLSELRNEIQTLREQIEHHPRVAKYAMENHSLREENRRLRLLEPVKRAQEMDAQTIAKLEKAFSEISGMEKSDKNQQGFSPKAQKEPCLFANTEKLKAQLLQIQTELNNSKQEYEEFKELTRKRQLELESELQSLQKANLNLENLLEATKACKRQEVSQLNKIHAETLKIITTPTKAYQLHSRPVPKLSPEMGSFGSLYTQNSSILDNDILNEPVPPEMNEQAFEAISEELRTVQEQMSALQAKLDEEEHKNLKLQQHVDKLEHHSTQMQELFSSERIDWTKQQEELLSQLNVLEKQLQETQTKNDFLKSEVHDLRVVLHSADKELSSVKLEYSSFKTNQEKEFNKLSERHMHVQLQLDNLRLENEKLLESKACLQDSYDNLQEIMKFEIDQLSRNLQNFKKENETLKSDLNNLMELLEAEKERNNKLSLQFEEDKENSSKEILKVLEAVRQEKQKETAKCEQQMAKVQKLEESLLATEKVISSLEKSRDSDKKVVADLMNQIQELRTSVCEKTETIDTLKQELKDINCKYNSALVDREESRVLIKKQEVDILDLKETLRLRILSEDIERDMLCEDLAHATEQLNMLTEASKKHSGLLQSAQEELTKKEALIQELQHKLNQKKEEVEQKKNEYNFKMRQLEHVMDSAAEDPQSPKTPPHFQTHLAKLLETQEQEIEDGRASKTSLEHLVTKLNEDREVKNAEILRMKEQLREMENLRLESQQLIEKNWLLQGQLDDIKRQKENSDQNHPDNQQLKNEQEESIKERLAKSKIVEEMLKMKADLEEVQSALYNKEMECLRMTDEVERTQTLESKAFQEKEQLRSKLEEMYEERERTSQEMEMLRKQVECLAEENGKLVGHQNLHQKIQYVVRLKKENVRLAEETEKLRAENVFLKEKKRSES
stoichiometry N [4]: 2

B3: Kif15-N700 (C-terminally truncated Kif15) (domain or fragment, UniProt Q9NS87 1-700, looked up)
chain: MAPGCKTELRSVTNGQSNQPSNEGDAIKVFVRIRPPAERSGSADGEQNLCLSVLSSTSLRLHSNPEPKTFTFDHVADVDTTQESVFATVAKSIVESCMSGYNGTIFAYGQTGSGKTFTMMGPSESDNFSHNLRGVIPRSFEYLFSLIDREKEKAGAGKSFLCKCSFIEIYNEQIYDLLDSASAGLYLREHIKKGVFVVGAVEQVVTSAAEAYQVLSGGWRNRRVASTSMNRESSRSHAVFTITIESMEKSNEIVNIRTSLLNLVDLAGSERQKDTHAEGMRLKEAGNINRSLSCLGQVITALVDVGNGKQRHVCYRDSKLTFLLRDSLGGNAKTAIIANVHPGSRCFGETLSTLNFAQRAKLIKNKAVVNEDTQGNVSQLQAEVKRLKEQLAELASGQTPPESFLTRDKKKTNYMEYFQEAMLFFKKSEQEKKSLIEKVTQLEDLTLKKEKFIQSNKMIVKFREDQIIRLEKLHKESRGGFLPEEQDRLLSELRNEIQTLREQIEHHPRVAKYAMENHSLREENRRLRLLEPVKRAQEMDAQTIAKLEKAFSEISGMEKSDKNQQGFSPKAQKEPCLFANTEKLKAQLLQIQTELNNSKQEYEEFKELTRKRQLELESELQSLQKANLNLENLLEATKACKRQEVSQLNKIHAETLKIITTPTKAYQLHSRPVPKLSPEMGSFGSLYTQNSSILDNDILN
stoichiometry N (SEC): 2
